# Laboratory results taken from patent publication US20110158985A1 (published 2011).
# Positions count from the first letter of the chain named. In names and notes the source's numbering stands. Several values for one entry are separate records, joined by “and”; a condition that tells them apart may be missing. Identical values can stand only once.
# B1: A1e9 IgG (antibody, V domains shown)
# VH: QVTLRESGPALVKPTQTLTLTCTFSGFSLSTAGMSVGWIRQPPGKALEWLADIWWDGKKHYNPSLKDRLTISKDTSKNQVVLKVTNMDPADTATYYCARDMIFNWYFDVWGQGTTVTVSS
# VL: DIQMTQSPSTLSASVGDRVTITCSLSSRVGYMHWYQQKPGKAPKLLIYDTFKLSSGVPSRFSGSGSGTEFTLTISSLQPDDFATYYCFQGSGYPFTFGGGTKVEIKR
# notes: also called Ale9
# B2: A17d4(1) Fab (Fab, V domains shown)
# VH: B1 VH with H60S, W105F
# VL: DIQMTQSPSTLSASVGDRVTITCLPSSRVGYMHWYQQKPGKAPKLLIYDTMYQSSGVPSRFSGSGSGTEFTLTISSLQPDDFATYYCFQGSGYPFTFGGGTKVEIK
# B3: A8c7 IgG (antibody, V domains shown)
# VH: B1 VH with G57D, H60S
# VL: B1 VL with L25P, F51R, K52Y, L53Q
# B4: A8c7 Fab (Fab, V domains shown)
# VH: B1 VH with G57D, H60S
# VL: B2 VL with L24S, M51R
# B5: A4b4 Fab (Fab, V domains shown)
# VH: B1 VH with G57D, W105F
# VL: B2 VL with L24S, P25A, M51F, Y52F, Q53L, S54D
# B6: G93Y Fab (Fab, name in Kabat numbering, V domains shown)
# VH: B1 VH with A32S, G57D, H60D, D67S, D100S, F103T
# VL: B2 VL with L24S, P25A, R28S, M51S, Y52K, Q53L, S54A, G92Y
# B7: palivizumab Fab (recombinant) (Fab, V domains shown)
# VH: B1 VH with A32S, G57D, H60D, D67S, D100S, F103T, Q112A
# VL: B2 VL with L24K, P25C, S26Q, S27L, R28S, M51S, Y52K, Q53L, S54A, V103L
# B8: S52F Fab (Fab, name in Kabat numbering, V domains shown)
# VH: B1 VH with A32S, G57D, H60D, D67S, D100S, F103T
# VL: B2 VL with L24S, P25A, R28S, M51F, Y52K, Q53L, S54A
# B9: G93W Fab (Fab, name in Kabat numbering, V domains shown)
# VH: B1 VH with A32S, G57D, H60D, D67S, D100S, F103T
# VL: B2 VL with L24S, P25A, R28S, M51S, Y52K, Q53L, S54A, G92W
# B10: S52Y Fab (Fab, name in Kabat numbering, V domains shown)
# VH: B1 VH with A32S, G57D, H60D, D67S, D100S, F103T
# VL: B2 VL with L24S, P25A, R28S, M51Y, Y52K, Q53L, S54A
# B11: 1X-493L1FR Fab (Fab, V domains shown)
# VH: B1 VH with A32S, G57D, H60D, D67S, D100S, F103T
# VL: B2 VL with L24S, P25A, R28S, M51S, Y52K, Q53L, S54A
# notes: also called IX-493L1FR
# B12: A14a4 Fab (Fab, V domains shown)
# VH: B1 VH with G57D, H60S, F103T
# VL: B2 VL with P25L, M51Y, S54T
# B13: A17b5 Fab (Fab, V domains shown)
# VH: B1 VH with G57D
# VL: B2 VL with L24S, P25L, M51Y, Q53L, S54P
# B14: 6H8 Fab (Fab, V domains shown)
# VH: B1 VH with G57D, H60D, D67S, F103T, W105F
# VL: B2 VL with L24S, P25A, R28S, M51F, Y52K, Q53L, S54T
# B15: H3-3F4 Fab (Fab, V domains shown)
# VH: B1 VH with G57D, H60D, D67S
# VL: B2 VL with L24S, P25A, R28S, M51F, Y52K, Q53L, S54A
# B16: P12f4 Fab (Fab, V domains shown)
# VH: B1 VH with A32P, W105F
# VL: B2 VL with L24S, P25L, M51R, Y52G, Q53L, S54P
# B17: M3H9 Fab (Fab, V domains shown)
# VH: B1 VH with G57D, H60D, D67S
# VL: B2 VL with L24S, P25A, R28S, M51Y, Y52K, S54T
# B18: Y10H6 Fab (Fab, V domains shown)
# VH: B1 VH with G57D, H60D, D67S
# VL: B2 VL with L24S, P25A, R28S, M51R, Q53L
# B19: DG (aka D95/G93) Fab (Fab, V domains shown)
# VH: B1 VH with G57D, H60D, D67S, F103T, W105F
# VL: B2 VL with L24S, P25A, R28S, M51F, Y52K, Q53L, S54A
# B20: L1-7E5 Fab (Fab, V domains shown)
# VH: B1 VH with G57D, H60D, D67S, F103T, W105F
# VL: B2 VL with L24S, P25A, M51F, Y52K, Q53L, S54A
# B21: palivizumab Fab (papain cleavage of palivizumab IgG) (Fab, V domains shown)
# VH: B1 VH with A32S, G57D, H60D, D67S, D100S, F103T, Q112A
# VL: B2 VL with L24K, P25C, S26Q, S27L, R28S, M51S, Y52K, Q53L, S54A, V103L
# notes: also called Palivizumab^a
# B22: A3e2 Fab (Fab, V domains shown)
# VH: B1 VH with D56G, G57D, K59G
# VL: B2 VL with L24S, P25A, R28S, M51F, Q53L, S54H
# B23: A16b4 Fab (Fab, V domains shown)
# VH: B1 VH with G57D
# VL: B2 VL with P25L, S54A
# B24: A17h4 Fab (Fab, V domains shown)
# VH: B1 VH
# VL: B2 VL with L24S, R28S, M51Y, Q53L, S54A
# Target: T1, F protein of RSV (Long strain) (RSV (Long strain), UniProt P12568 26-574)
# Test: cell-based or functional assay
Binder,Mean IC50 (Control),Mean IC50 (Curve)
B1,0.0645 µg/mL,0.0625 µg/mL
B2,0.0171 µg/mL,0.0179 µg/mL
B3,0.0383 µg/mL,0.0337 µg/mL
B4,0.157 µg/mL,0.177 µg/mL
B5,0.0411 µg/mL,0.0414 µg/mL

# Target: T1, F protein of RSV (Long strain)
# Test: cell-based or functional assay
# Remark: another data set of the same source
row,Binder,"Microneutralization IC50, Fab"
1,B6,6.26 µg/ml and 125 nM
2,B7,27.5 µg/ml and 549 nM
3,B8,7.27 µg/ml and 1.45 µM
4,B9,6.57 µg/ml and 131 nM
5,B10,5.99 µg/ml and 120 nM
6,B11,26.3 µg/ml and 526 nM

# Target: T1, F protein of RSV (Long strain)
# Test: cell-based or functional assay
# Remark: another data set of the same source
Binder,"Microneutralization IC50, IgG","Microneutralization IC50, Fab"
B1,0.0625 µg/ml and 0.42 nM,–
B2,–,0.0179 µg/ml and 0.36 nM
B7,–,27.5 µg/ml and 549 nM
B3,0.0337 µg/ml and 0.22 nM,–
B12,–,> 0.4 µg/ml and > 8 nM
B13,–,0.406 µg/ml and 0.92 nM
B4,–,0.177 µg/ml and 3.54 nM
B5,–,0.414 µg/ml and 0.83 nM

# Target: T2, RSV F glycoprotein (NUF4) (respiratory syncytial virus)
# T2 chain 1: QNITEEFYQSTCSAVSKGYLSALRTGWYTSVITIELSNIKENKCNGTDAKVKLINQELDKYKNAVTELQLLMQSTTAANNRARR
# T2 chain 2: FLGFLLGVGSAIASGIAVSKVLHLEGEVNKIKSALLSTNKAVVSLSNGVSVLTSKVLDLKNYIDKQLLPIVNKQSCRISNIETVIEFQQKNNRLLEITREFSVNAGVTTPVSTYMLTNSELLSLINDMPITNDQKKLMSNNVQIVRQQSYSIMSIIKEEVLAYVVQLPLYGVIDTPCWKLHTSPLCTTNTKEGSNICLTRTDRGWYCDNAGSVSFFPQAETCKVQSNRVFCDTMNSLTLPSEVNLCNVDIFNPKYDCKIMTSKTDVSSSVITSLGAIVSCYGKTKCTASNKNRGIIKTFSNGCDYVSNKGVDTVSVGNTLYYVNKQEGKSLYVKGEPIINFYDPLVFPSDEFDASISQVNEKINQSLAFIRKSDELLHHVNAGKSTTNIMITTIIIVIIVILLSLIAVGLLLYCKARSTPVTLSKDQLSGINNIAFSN
# Test: SPR (BIAcore), mAb vs NUF4 (1:1)
Binder,Kd,fold in parentheses (palivizumab = 1),koff,kon
B1,0.69 nM,13 fold,0.000584 s⁻¹,843000 M⁻¹ s⁻¹
B3,0.65 nM,13 fold,0.000535 s⁻¹,825000 M⁻¹ s⁻¹

# Target: T2, RSV F glycoprotein (NUF4)
# Test: SPR (BIAcore), mAb vs NUF4 (2:1)
Binder,Kd,fold in parentheses (palivizumab = 1),koff,kon
B1,4.22 nM,74 fold,0.00139 s⁻¹,329000 M⁻¹ s⁻¹
B3,2.65 nM,118 fold,0.00114 s⁻¹,430000 M⁻¹ s⁻¹

# Target: Bac-F (respiratory syncytial virus)
# Test: SPR (BIAcore), mAb vs Bac-F (1:1)
Binder,Kd,fold in parentheses (palivizumab = 1)
B1,0.33 nM,12 fold
B3,0.21 nM,19 fold

# Target: RSV F protein (purified) (respiratory syncytial virus)
# Test: SPR (BIAcore), F protein immobilised
Binder,koff,kon
B14,0.000178 s⁻¹ and 0.000473 s⁻¹,314000 M⁻¹ s⁻¹ and 444000 M⁻¹ s⁻¹
B15,0.000445 s⁻¹ and 0.000402 s⁻¹,–
B16,0.000299 s⁻¹,527000 M⁻¹ s⁻¹
B17,0.000338 s⁻¹,605000 M⁻¹ s⁻¹
B18,0.000462 s⁻¹,757000 M⁻¹ s⁻¹
B19,0.000167 s⁻¹ and 0.000444 s⁻¹,–
B20,0.000192 s⁻¹ and 0.000331 s⁻¹ and 0.000229 s⁻¹,–
B11,0.00065 s⁻¹,185000 M⁻¹ s⁻¹

# Target: T3, recombinant C-terminally truncated RSV (A2 strain) F protein (RSV (A2 strain), UniProt P03420 26-524)
# T3 construct: extracellular domain; also called truncated F protein; extracellular domain of the F protein from RSV A2
# Test: SPR (BIAcore), Fab over immobilised F
Binder,Kd,koff,kon
B6,0.94 nM,0.000153 s⁻¹,162000 M⁻¹ s⁻¹
B7,5.25 nM,–,–
B21,6.07 nM,–,–
B8,0.85 nM,0.000175 s⁻¹,206000 M⁻¹ s⁻¹
B9,0.93 nM,0.00014 s⁻¹,150000 M⁻¹ s⁻¹
B10,0.74 nM,0.000125 s⁻¹,170000 M⁻¹ s⁻¹
B11,3.52 nM,0.000651 s⁻¹,185000 M⁻¹ s⁻¹

# Target: T3, recombinant C-terminally truncated RSV …
# Test: SPR (BIAcore), Fab over immobilised F
# Remark: another data set of the same source
Binder,Kd,koff,kon
B2,0.111 nM,5.9e-05 s⁻¹,531000 M⁻¹ s⁻¹
B7,5.25 nM,–,–
B22,0.157 nM,9.4e-05 s⁻¹,599000 M⁻¹ s⁻¹
B23,0.214 nM,0.000105 s⁻¹,490000 M⁻¹ s⁻¹
B12,0.723 nM,0.00024 s⁻¹,332000 M⁻¹ s⁻¹
B24,0.202 nM,0.000105 s⁻¹,519000 M⁻¹ s⁻¹
B13,0.124 nM,7.3e-05 s⁻¹,590000 M⁻¹ s⁻¹
B4,0.464 nM,0.0003 s⁻¹,647000 M⁻¹ s⁻¹
B5,0.086 nM,5.2e-05 s⁻¹,604000 M⁻¹ s⁻¹

# Target: T3, recombinant C-terminally truncated RSV …
# Test: SPR (BIAcore), IgG over immobilised F
Binder,Kd,koff,kon
B1,0.33 nM,0.000143 s⁻¹,433000 M⁻¹ s⁻¹
B3,0.21 nM,8.75e-05 s⁻¹,417000 M⁻¹ s⁻¹
